Experimental data: paper PMC2082060

Target: GST-endophilin I (recombinant) (UniProt O35179)
Assay: sequential GST pull-down, 32P autoradiography
Details: reference: total dynamin I of the lysate; sites S774,S778

other: phospho/total bound dynamin I, % of AmphI-SH3 control: 91%
Substance: dynamin I (from UniProt P21575) 32P-labelled phospho-dynamin I of same lysate
